{
  "source": "paper PMC6744581",
  "about": "(2019)",
  "parents": {"B1": {"name": "GFP-RhoBTB1 [human] / myc-ROCK1^1–727 [human] (parent complex)", "chain 1": "MDADMDYERPNVETIKCVVVGDNAVGKTRLICARACNTTLTQYQLLATHVPTVWAIDQYRVCQEVLERSRDVVDEVSVSLRLWDTFGDHHKDRRFAYGRSDVVVLCFSIANPNSLNHVKSMWYPEIKHFCPRTPVILVGCQLDLRYADLEAVNRARRPLARPIKRGDILPPEKGREVAKELGLPYYETSVFDQFGIKDVFDNAIRAALISRRHLQFWKSHLKKVQKPLLQAPFLPPKAPPPVIKIPECPSMGTNEAACLLDNPLCADVLFILQDQEHIFAHRIYLATSSSKFYDLFLMECEESPNGSEGACEKEKQSRDFQGRILSVDPEEEREEGPPRIPQADQWKSSNKSLVEALGLEAEGAVPETQTLTGWSKGFIGMHREMQVNPISKRMGPMTVVRMDASVQPGPFRTLLQFLYTGQLDEKEKDLVGLAQIAEVLEMFDLRMMVENIMNKEAFMNQEITKAFHVRKANRIKECLSKGTFSDVTFKLDDGAISAHKPLLICSCEWMAAMFGGSFVESANSEVYLPNINKISMQAVLDYLYTKQLSPNLDLDPLELIALANRFCLPHLVALAEQHAVQELTKAATSGVGIDGEVLSYLELAQFHNAHQLAAWCLHHICTNYNSVCSKFRKEIKSKSADNQEYFERHRWPPVWYLKEEDHYQRVKREREKEDIALNKHRSRRKWCFWNSSPAVA", "chain 2": "MSTGDSFETRFEKMDNLLRDPKSEVNSDCLLDGLDALVYDLDFPALRKNKNIDNFLSRYKDTINKIRDLRMKAEDYEVVKVIGRGAFGEVQLVRHKSTRKVYAMKLLSKFEMIKRSDSAFFWEERDIMAFANSPWVVQLFYAFQDDRYLYMVMEYMPGGDLVNLMSNYDVPEKWARFYTAEVVLALDAIHSMGFIHRDVKPDNMLLDKSGHLKLADFGTCMKMNKEGMVRCDTAVGTPDYISPEVLKSQGGDGYYGRECDWWSVGVFLYEMLVGDTPFYADSLVGTYSKIMNHKNSLTFPDDNDISKEAKNLICAFLTDREVRLGRNGVEEIKRHLFFKNDQWAWETLRDTVAPVVPDLSSDIDTSNFDDLEEDKGEEETFPIPKAFVGNQLPFVGFTYYSNRRYLSSANPNDNRTSSNADKSLQESLQKTIYKLEEQLHNEMQLKDEMEQKCRTSNIKLDKIMKELDEEGNQRRNLESTVSQIEKEKMLLQHRINEYQRKAEQENEKRRNVENEVSTLKDQLEDLKKVSQNSQLANEKLSQLQKQLEEANDLLRTESDTAVRLRKSHTEMSKSISQLESLNRELQERNRILENSKSQTDKDYYQLQAILEAERRDRGHDSEMIGDLQARITSLQEEVKHLKHNLEKVEGERKEAQDMLNHSEKEKNNLEIDLNYKLKSLQQRLEQEVNEHKVTKARLTDKHQSIEEAKSVAMCEMEKKLKEEREAR"}},
  "data": [
    {"variants_of": "B1", "assay": "co-immunoprecipitation (GFP-trap) with band density quantification; COS7 cells, 24 h after transfection; five independent experiments; parent: 0.52; read off a plot", "values": [
      {"variant": "chain 1 D198A", "response": "~0.63 relative value myc IP/GFP IP"},
      {"variant": "chain 1 E64A, chain 1 K197A", "response": "~1.4 relative value myc IP/GFP IP"},
      {"variant": "chain 1 K197A", "response": "~0.48 relative value myc IP/GFP IP"}
    ]},
    {"variants_of": "B1", "assay": "co-immunoprecipitation (GFP-trap) with band density quantification; COS7 cells, 24 h after transfection; three independent experiments; parent: 1.1; read off a plot", "values": [
      {"variant": "chain 1 E64A, chain 1 K197A", "response": "~2 relative value myc IP/GFP IP"},
      {"variant": "chain 1 E64A, chain 1 K197A, chain 1 D198A", "response": "~1.2 relative value myc IP/GFP IP"},
      {"variant": "chain 1 E64A", "response": "~1.5 relative value myc IP/GFP IP"},
      {"variant": "chain 1 R60A, chain 1 C62A, chain 1 E64A", "response": "~1.1 relative value myc IP/GFP IP"}
    ]}
  ]
}
